Data on 1 protein can be found in article PMC9040844, “Escherichia coli Uses a Dedicated Importer and Desulfidase To Ferment Cysteine” (mBio, 2022).

In general, Km refers to the concentration of substrate that gives half-maximal velocity.

Substrate in the data set: N[C@@H](CS)C(=O)O
Put plainly: purified protein. The class given is biochemical, Escherichia coli. To be noted: 50 mM Tris pH 7.6, room temperature, anaerobic, Fe(II)/DTT-reactivated [4Fe-4S] enzyme.

B1: CyuA (Escherichia coli K-12) (protein)
chain: MFDSTLNPLWQRYILAVQEEVKPALGCTEPISLALAAAVAAAELEGPVERVEAWVSPNLMKNGLGVTVPGTGMVGLPIAAALGALGGNANAGLEVLKDATAQAIADAKALLAAGKVSVKIQEPCDEILFSRAKVWNGEKWACVTIVGGHTNIVHIETHDGVVFTQQACVAEGEQESPLTVLSRTTLAEILKFVNEVPFAAIRFILDSAKLNCALSQEGLSGKWGLHIGATLEKQCERGLLAKDLSSSIVIRTSAASDARMGGATLPAMSNSGSGNQGITATMPVVVVAEHFGADDERLARALMLSHLSAIYIHNQLPRLSALCAATTAAMGAAAGMAWLVDGRYETISMAISSMIGDVSGMICDGASNSCAMKVSTSASAAWKAVLMALDDTAVTGNEGIVAHDVEQSIANLCALASHSMQQTDRQIIEIMASKAR
notes: full ORF in pET16b, N-terminal His10 tag kept, about 47 kDa; expressed in E. coli SR011 (BL21(DE3) katG katE) with isc operon
On to B1, for which the Km came out at 200 µM.
